According to US20160280794A1:

Target: Ramos (human) (UniProt P11836)
Experiment: FACS binding; Ramos cells

Ramos (human), sequence (P11836 whole entry): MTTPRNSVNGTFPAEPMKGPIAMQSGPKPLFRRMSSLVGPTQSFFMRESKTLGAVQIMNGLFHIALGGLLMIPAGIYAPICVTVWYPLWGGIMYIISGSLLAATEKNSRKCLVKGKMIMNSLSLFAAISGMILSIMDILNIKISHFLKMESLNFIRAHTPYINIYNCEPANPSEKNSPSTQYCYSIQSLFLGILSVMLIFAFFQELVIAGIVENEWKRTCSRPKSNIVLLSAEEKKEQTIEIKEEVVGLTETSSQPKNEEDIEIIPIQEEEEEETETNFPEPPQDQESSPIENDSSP

Row | EC50 | Substance
1 | 1.2 µg/mL | Rituxan-SCT
2 | 1.54 µg/mL | Rituxan-GlcNAc
